Source: a protein production outcome set (Wang et al. 2014)

Assay: label from the status in PepcDB records

Sequence	protein production
MKSNLFMKRKLEIGLSLLIGTSVFGGCNNDLAPIRQSQTFPPNLNAPTVFESFSPDSGGVKTQLIIRGQNFGTDTAYLKVTVNNKRAAIVGVADDVIYAIVPARADTGYVRLFVGKDDNVEEYASQTKFIYQFKRNVTTLMGRQGQSGRDDGPYAECKLQRPWFALADKDGALFFIDEGRGQNKNGALRRAQEGWVETLVQNSSGPFQSPTCLAFNPKQDTLYISNMSYGSDIKTSFNILYVTREGGFMDVKGLCKFEKAETQGLAVHPQTGEIFFCNKSGGYIYRFNGPDYEDYEPLFQINRADKIDTRMVFNPEGTALFVVVCNRHCIYKVPYNALTHTFGEPELFAGGWDESGYVNGSGVTARFDNPRQPAFDQDGNMFVPEYGRHTIRKITPTGEVSLYAGLPGQAGFTDGLPEKARFNKPECVTVYLDNSLYVADRDNHLIRRVTVE	failed
MHIKIDDLTGRQVVSLVNEHLHSMTLMSPPESIHALGLEKLRGPEITFWSAWEGDELAGCGALKELDTRHGEIKSMRTSASHLRKGVAKQVLQHIIEEAEKRGYERLSLETGSMASFEPARKLYESFGFQYCEPFADYGEDPNSVFMTKKLLEHHHHHH	not failed
ATTMEQETCAHSLTFEECPKCSALQYRNGFYLLKYDEEWYPEELLTDGEDDVFDPELDMEVVFELQGNSTSSDKNNSSSEGNEGVIINNFYSNQYQNSIDLSANAAGSDPPRTYGQFSNLLSGAVNAFSNMLPLLADQNTEEMENLSDRVSQDTAGNTVTNTQSTVGRLVGYGTVHDGEHPASCADTASEKILAVERYYTFKVNDWTSTQKPFEYIRIPLPHVLSGEDGGVFGAALRRHYLVKTGWRVQVQCNASQFHAGSLLVFMAPEYPTLDAFAMDNRWSKDNLPNGTRTQTNKKGPFAMDHQNFWQWTLYPHQFLNLRTNTTVDLEVPYVNIAPTSSWTQHASWTLVIAVVAPLTYSTGASTSLDITASIQPVRPVFNGLRHETLSRQ	not failed
MKFDNYIFDFDGTLADTKKCGEVATQSAFKACGLTEPSSKEITHYMGIPIEESFLKLADRPLDEAALAKLIDTFRHTYQSIEKDYIYEFAGITEAITSLYNQGKKLFVVSSKKSDVLERNLSAIGLNHLITEAVGSDQVSAYKPNPEGIHTIVQRYNLNSQQTVYIGDSTFDVEMAQHAGVPSAAVTWGAHDARSLLHSNPDFIINDPSEINTVL	failed
MAQTQLPHDAKAGPTKPEVRAVVRSKLALTDDDHFVEVGSCTGAVTIAAARDAGRVTALERKADRLETTRKNLAANGLADAVELRNAEAPAELPADADALFIGGSRNYDAVLDHAAETGVDRIVMNVSRLEVAGAATQAFRDRDILTEVVQFQVSHGYELAGATSFDSENPVYMLVGSASGDTEADR	failed
MRGVYRVMVKVYIENYGCARNRADGEIMAALLYLSGHEIVESPEESEIVVVNSCAVKDPTERKIARRIRELLDNGKKVIVTGCLPHVNPDVIDERVSAILGVKSIDRIVQAVEYAMRGEKLISVPDWKKRNLDKLDFPRLSPRNVYFILPIAEGCLNACTYCATRLARGVLKSYSPEKIIGWVKWAIKQGYKEIWLSAEDTGCYGFDIGTNLAKLIDEITAIEGEFRIRVGMMNPNHVLKFLDELIDAYKDEKVYKFLHLPVQSGDNEILRKMGRMYTVEEFEEIVKAFRREFPELNLHTDIIVGFPGESEEAFQRSVELIKRIRPDKVNVSRYSPRPGTIAAKWKQLPGWVVKERSRLLHRIRLQISYEINRKYIGKKVKVLIHGEGKKGNVDAVTMNYKHIILPEGRKGEFREARVKNAASTYLLGEIIT	failed
VQRCVIIQKDQHGFGFTVSGDRIVLVQSVRPGGAAMKAGVKEGDRIIKVNGTMVTNSSHLEVVKLIKSGAYVALTLLGSS	not failed
MKFKTIIKASYSIIFLSFQKVLHWEHIKFTAFKNLLSVSTKILIDKSSSVKFAGKICTESNVELKALNGGKLFIAENVFINSNSIVVALDNIHIGSNTLIGPGVLIFDHDHDFEKDKNSGTKNGRHFVTKPIRIESDVWIGGNSVILKGVTIGKGAVIAAGSIVLKDVEPYCLYAGNPAKKIRSY	failed
MFRPQDDFTYLMPVHFGGGKFDPETLVTQKATALSLSFETERDLLENYIPEGFELLAPEVQVAFNKFTEINWLHGGQYNLINVAAPVRFHGKKDELDGAYTLVVWENKTAPILGGREQTGIPKIYADIEDLHIVRPHFATTVSYEGNTFLNMDFEATGSITGRDLDALKSQFLTMNTLGWRYIPKVGAPGAELSQFVLYPQGMEVETAEVGKGSLKWTELTPMQSPAQYYIVNSLASLPIKRVTQAVLVEGRAILRAMGARVIE	not failed
MTHPLYIFDLDETLINGDCAMIWNEFLVDKGIVTTPDFLEEDKRLMTLYSRGLMDMEDYLIFAMSPLKNIPTDQVEILIEECVNERILPLLFPEAKILIHQLKADNVDMIVISASVSFLVKIVAKNIGIKHAIGIDLKEKNGCYTRHILGVPSYREGKVSRLTEWLNGGDKTYSALHFYTDSINDLPLCLYADHTYLVNPCEQLAVYSKKKNWPILAWGSQ	failed
MIGQAILLGCIAFIAQSEYALGTSLLSRPIVTGLFVGIVLGDVKTGVIMGATLELAFIGSFSVGASIPPDVVTGGILGTAFAITAGAGTETALVLGLPIATLTLILKNIYLGLLIPIMSQKADQYAEEGAYKGVERMHLLAGFGLSFMLALIVTISFAVGSNTIKGLLDLIPEFIQHGLSVATGIIPALGFAMLARLLINKQVAPYFFLGFVLMAYFKLPVTGVAILGAITAVIVVNIMNYAKGKNETIQTTSGEVIDDDEDF	failed
MATRAPASTLRQIPSGIWMLGCVSLLMDISSEIIHSLLPVFMVTTLGASALAVGLIEGAAEATALIVKVFSGVLSDYLGKRKALAVLGYGLGALSKPLFAVAPGVGTILAARLSDRIGKGIRGAPRDALVADIAPAHLRGAAFGLRQALDTVGAFLGPLIAIGLMMLWANDFRAIFWVAVVPGVLSVALLAFGVKEPQTHTGDKRVNPIRRANLARLGPAYWGVVAVGTAFALARFSEAFLILRVQQEGLPLFMAPLVLVTMNAVFAVTAYPFGKLADNCSHDKLLVAGLAVLIVADTVLAVGSHWSIALVGVALWGLHMGMTQGLLATMVADAAPADLRGTAFGVFNLASGLALLAASVMAGWLWDRHGAAATFHAGAGFCVLTIALLIHRLRNRPASGAATR	failed
MMLDALQANGLMQILLLTLMAGLAMPVGAALASVERIHPRWLETEVRHSVIAFGGGALLAAVALVLVPEGTANLPMVGIVVCFAGGGISFMLLDRWLAANGTPASQLVAMLSDFVPEAMALGATFSVSSEGGILLAGIIALQNIPEGFNSYRELVDATHYRGLKIVGALALMALLGPVAGALGYFLLSDAPSVVSGIMLFAAGGILYIIFQDIAPQVRLKKHWAPPLGALAGFLLGVMGEVALSG	failed
MIENSSPYTSEHFHYTVTDIKDLTKLGAIYDKTKKYWVYQGKPVMPDQFTFELLDFLHQLTHLSFSKMKALLERSHSPYYMLNRDRTLKNITETCKACAQVNASKSLEHHHHHH	not failed
MISDIRKDAEVRMDKCVEAFKTQISKIRTGRASPSLLDGIVVEYYGTPTPLRQLASVTVEDSRTLKINVFDRSMSPAVEKAIMASDLGLNPNSAGSDIRVPLPPLTEERRKDLTKIVRGEAEQARVAVRNVRRDANDKVKALLKDKEISEDDDRRSQDDVQKLTDAAIKKIEAALADKEAELMQF	not failed
MKLIKNGKVLQNGELQQADILIDGKVIKQIAPAIEPSNGVDIIDAKGHFVSPGFVDVHVHLREPGGEYKETIETGTKAAARGGFTTVCPMPNTRPVPDSVEHFEALQKLIDDNAQVRVLPYASITTRQLGKELVDFPALVKEGAFAFTDDGVGVQTASMMYEGMIEAAKVNKAIVAHCEDNSLIYGGAMHEGKRSKELGIPGIPNICESVQIARDVLLAEAAGCHYHVCHVSTKESVRVIRDAKRAGIHVTAEVTPHHLLLTEDDIPGNNAIYKMNPPLRSTEDREALLEGLLDGTIDCIATDHAPHARDEKAQPMEKAPFGIVGSETAFPLLYTHFVKNGDWTLQQLVDYLTIKPCETFNLEYGTLKENGYADLTIIDLDSEQEIKGEDFLSKADNTPFIGYKVYGNPILTMVEGEVKFEGDK	failed
MSDTRRCVVIPAVKKNAVIPDQLVKRLAGVTLIQRAIDTAKALAPGDDIVVVTDSQEIALICERNGVRHVCNPGLHLATLDIVRELRGVLEDLARSYGHIVIYRASCPLLTADDIEDAYATFLREGADCLVTVKSVRHRVWEKRNGGLDALLSQDETEPSIYVESKALVMLDASALTRGEVRKVVPYFLNDRAIEINSYQDWWICEKLLCRKHIVFVVAGYPAIGMGHIFRALMLAHEVADHRITFLCTRESELAASNIAARDYRTRVQQGDDLAADVLSLRPDLVINDILNTDADYVGRLREAGVRVVNFEDEGPGAHLADLVVNALYEEKVDDPRFLHGHRFFCLRDEFVNGVRNDYRDPVRCVLVTFGGTDHSDFSRGTLDAIEPLCRERGITIRLVAGPGYAHKDAMQEHVERLGSPLVEFTYATNVMSRMMEGADLAICSAGRTVYELAHMRVPAIVMAHHEREGRHTFARGRNGFAYLGVMEHFDGAKLTRVFTQLLDAGNRRRLFDRQARFDFIRNKADVVRRITALLDDTPAPENA	failed
MATIEKRGSSYRARVTIYQHGKRDYLTKTFKTENEAKVWGTTLELEKAKGKAIAHQNTLFKDFYYLYVHTIKVNDVRKATFNNYLKAGLVINNLFPTAKLGKLDDVQMQKILDKYGETHSKKTVVELLKKIRTALRYAYAKGYIYNDFASLLKAHGKELPKRNKALSMSDLTKLKHYLLEHTDDEFNLMVLLEISTGLRRGEILGIKPEDVHYDGQYYCVEVRRSISPTTDDTKLKTKHSRRSVTIPKDVYDLLKTIPSKASGYLFDWFSFKQSELLKKLLKKIGIPSTTFHGLRDTHASFLFSNNIPLSYVSRRLGHDSILTTEKYYLELMPEKKHSQDANALNLLASL	failed
MGYEGIIVVDVRDAEAYKECHIPTAISIPGNKINEDTTKRLSKEKVIITYCWGPACNGATKAAAKFAQLGFRVKELIGGIEYWRKENGEVEGTLGAKADLFWNMKKESLEHHHHHH	failed
MGHKQSVDSRGKGRKVPGSSSMVQKHRVESSGGAIISGPSLFDNLPEDCISNIISFTSPRDACVAASVSKTFESAVNSDSVWDKFLPSDYSSLVPPSRVFSSKKELYFAICDNPVLVEDGGKSFWLEKENGKKCFMLSPKKSMWITWVSTPQYWRWISIPEARFEEVPELLNVCWFEVRGGMNTKELSPGTRYSAYIVFKTKNGCPNLGDVPVEATVGLVGQESSQRHIYFVGPSDQRRDRETRDVTRPTKRKDGWMEAELGQFFNESGCDVVDTSILEIKTPYWKRGLIIQGIEFRPTKSLFYI	not failed
MMFGRFSDRAQKMIYYAQEEAQNFKHGYVGTEHILLGILRDENGKAQSLLANMGVTIEKVRRLIEEYEGFGDSDLYKEEPPLTPRTKRLLEISLLEARNLNHNYINPEHVLLALIRESEGVAFTILGNLGVDFERLRKEILDSLS	failed
IKERVKMEVIGLEIPLISGNEDYTLAELISTYPLEDKDVIVIAETVVSKIEKNVILKNEITPSNEAMELSKKLGKEPEVVQVILDESNEIVKLGPNFIITETKHGFVCANSGVDESNTSKGIKPLPKNPDKSAEEIRMGIEKITGKKVGVIINDSMGRPFRKGSCGIAIGVSGVCGLWDRKGEKDLFGRELKTTEVGIADELAATASAVMGQSNEGIPLVIIRNAPVPFTNGTGKELIRKKEEDVFR	failed
